Reference: a protein production outcome set (Wang et al. 2014)

Test: label from the status in PepcDB records
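Further: failed if final PepcDB status was selected cloned or expressed and not failed if soluble or beyond.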

Which protein production does the source give for “MNIKINEKWREVKENCTVYALKNEEFPDSHVIVLNGFPLVEDKKLKDGDRIVFIKKGIMPNKEELEELMVSRHTPGIHEKLKRIKVLIAGCGGLGSNIAISLGRIGVGSISLVDFDIVEPSNLNRQQYYIEDIGEFKVTALKRNLIRINPFIKIEALNLKLSEDNMGILQGADIIIEAFDNPDYKALLANYVLGNMKDKFLISSSGMAGFYDSNLIKTKQITDKFYICGDLVNEAKEGCGLMAPRVAICANHMANLVIDIAINKIEFQK” here?
The protein production was “failed”.

With “SVICCAAVNCSNRQGKGEKRAVSFHRFPLKDSKRLIQWLKAVQRDNWTPTKYSFLCSEHFTKDSFSKRLEDQHRLLKPTAVPSIFHLTEKKRGAGGHGRTRRKDASKATGGVRGHSSAATGRGAAGWSPSSSGNPMAKPESRRLKQAALQGEATPRAAQEAASQEQAQQALERTPGDGLATMVAGSQGKAEASATDAGDESATSSIEGGVTDKSGISMDDFTPPGSGACKFIGSLHSYSFSSKHTRERPSVPREPIDRKRLKKDVEPSCSGSSLGPDKGLAQSPPSSSLTATPQKPSQSPSAPPADVTPKPATEAVQSEHSDASPMSINEVILSASGACKLIDSLHSYCFSSRQNKSQVCCLREQVEKKNGELKSLRQRVSRSDSQVRKLQEKLDELRRVSVPYPSSLLSPSREPPKMNPVVEPLSWMLGTWLSDPPGAGTYPTLQPFQYLEEVHISHVGQPMLNFSFNSFHPDTRKPMHRECGFIRLKPDTNKVAFVSAQNTGVVEVEEGEVNGQELCIASHSIARISFAKEPHVEQITRKFRLNSEGKLEQTVSMATTTQPMTQHLHVTYKKVTP” as the sequence, how does the protein production read?
The protein production was “not failed”.

For “MIFDTEPDAMTLAPDDKPQDRHFDWSGVPIDLGGMEPLEQIARLLCHALVAPAAALTITEGGRLRVLAARGISSSHVEQAMELCKQVPPAPNGVTELIEHATLAQIKLGDAAFPGLPARFIACVPVGAPQTGISGTLCVIDTRERRLASQEHQQLLMFANVAAAQLELQFGAGRREPHSGLLNTRQLQSDLDALAFGSHSVPTIAAFIEVYDTQAANEARQALGMQPLEELVRHASYVLTRALRGKATVYHVASMRFAFFLLNSAPDEMEDLLLDLRDMLHKPVDAAGVPMSLTFHAGVVRFAPQQPDTNDVMRKGLVALGDAINNHAIVCWYSASHDDAIQRSYRLALDAEQALDAGDFRLVFQPRIDLEDLSVTGFEALLRWNHASMGPIGPDEFIPLFEKTALMCTVTNWVIESALVQLAKWRAQGLDFSMSINLSSRDFGNINLAADVINRCKDLAIPTTCIELEITEGRWLRSNVEAVPRLRALRDAGVSVAIDDFGTGYSNFGYLTELPVNVLKLDRSLVTGIATKTGMQMRAEAVVRLANALGYRTVAEGIEHADEIALLRSWGCDEAQGYLLAKPMEAHLVADYVKQTAALRRLP”, which protein production is on record?
The protein production was “failed”.

With “MTEQSAHEKYEFKKKLEGLRDKKGRSTELISLYIPPDKQIFDVTNQLKDEHGQAANIKSKLTRTNVQGAIESLLSRLRYLDKVPENGIVYFTGAVDIGANKTSMESEVIVPPDPITVYKYHCDSSFYLEPLEDMLKDKNTYGLLVLDRREATIGLLVGKRIQPFRNLTSTVPGKQRKGGQSAHRFQQLRLIAIHDFYKRIGDAASEVFMAVDHKDLKGVLIGGPSPTKEEFHAGEFLHHELMKKILGLFDTAYTDESGLSELVNAAGEKLQDLELMGQKNAVRDFFKELIADSGKVAYGESQVRANLEINSVDVLLLSEDLRAERVTTKCSVCGYENKWTRRWKPGEPAPAAGNCPKCGSSLEVTDVTDIVDEFSELADKSNAKVVFVSTDFDEGSQLMNAFGGIAAILRYNTGV” as the sequence, how does the protein production read?
Its protein production is “failed”.

With “MSLSEYRRKRSFDKTREPEPGKTLPPGQRAIFVVQLHHASRRHYDFRLQVGDALKSWAVPKGPSYDPKVKRMAVEVEDHPVDYASFEGEIPRGEYGGGHVAQFDHGVWATAGDPEAQLAKGHLRFELFGNKLKGGWHLVRSGKPARQPQWLLFKEDDAYAGTLEADDLLADVAATPADDVRRAGAGKTQRKGLTTVPPPAAKKRGTWAKQALALSGARRAEMEDAPFAPQLAKLVQSPPEGAQWLHEIKWDGYRILATVTNGKVRLWSRNALEWTDKTPEIADAIQSLGLRNAQIDGELIAGRGTKEDFNLLQATLSGERQVPLALAVFDLLHVDGVDISEAPLRERKQLLQQVLQAAPHMHLAYSSHVEGDGTEAFRVAGEQHFEGIISKRADRPYRDGRSDDWRKTKQLASQEYAVVGYTAPKGSRSGFGSLLLATPDPVHGWLYVGRVGSGFSDALMREVTQQLEGGGRKPTAHIPTPDTDLRGATWFAPRFVVEVFYRGIGGQQLLRQASFKALRPDKRIADLADSDAGNGRSTSSSTQRSAKTRAAKNAATQVAKRAATRATAPARKSAVATPSSAALPTLSSPTKLIYPDIRATKGDVWDYYQAVMDHLLPQIVGRPLSIIRCPSGAEKPCFFQKHHTAGLERVSSVKLTEETGTNAYYLVIEDAPGLLELVQFNALEFHPWGSHADRPDVADRVVFDLDPGPDVPFAEVKRAANDIRKLLAQLELESFLRVSGGKGLHVVVPLNPGCDWEVTKRFAKGFADALAQAEPQRFIATATKRLRNKRIFVDYLRNGRGATAVASYPLRGRPGAPVALPLAWSDLSKLQRADAFTLRDVPEKLRRRRKDPWADMDRIRQNLARWAEQDED” as the sequence, how does the protein production read?
The protein production was “failed”.

Which protein production does the source give for “MSVKVMKRLGTLLLLVCVLIILIPQSASAHAYVVKSNPTENETLKKAPSVVKIEFDEDIQVSRFNTLYVRDTSGKRVDLKDAHIDKKNKKLLEAGLKENLKNGLYSIQWKAISADGHPIQGVIPFRIGLAEAETDDVQVEEMGYVPQIDMIMERGILYTSFSLFIGVLFFNLIMYKGNATSVRSRSKNIIWISLFGILISLLFNLPLQAKINADVSWLEAFNPLLLKETLQLSVFGYVWITQMVLISTLIIVTYFAVKHEKFSSFKVWSIPILLFIGLLVMKAFNSHAYGLKFKDIAVVMDFLHLFAASLWVGGLSSIILLLRNEDNKWHMYWDMIKRFSPWATGAVIVILITGLFNSTFFIPTIHSLFDTKYGLVLLTKILLFIFMGILGIIHYVKGRMRAQQGLGATVKVEFIIGIIIFVIVAFMTNVQTPPMPPTGPFTESKQLDNGYEMTLNVSPNRVGQNIFHITLKDENGQPVTDMEQIILTTQSLDMNMGKGSFKVSAVSPGEYEAEGMYINMTGNWNIQVHGLTKSLDSFDTDYKFIVGGR” here?
The protein production was “failed”.

With “MDKQKEQLSIEVARLYYQSDLGQQEIATRLGVSRPTVSRLLQNAKLKGYVKIEVQDPFSNLTELANALKEKYQLKNVTVAFSQTNDYSEISKQISQSAAEYLEEIIHDDDILGVSWGTTMYKIAQKLSPQKAEIKVVQLKGGVSHSDVNTYAAETLALFGAAYDTAPVSLPLPVVLDNPLAKQMVEADRHIKNIIELGKKANIAIFTVGTVREEALLFRLGYFSDEEKIRLKEKAVGDICSRFFTINGEIADEKMNERTIGIDLQDLKQKETAILVAGGERKIKAIHGALRGGYANHFITDQYTAKQLLEQNFSN” as the sequence, how does the protein production read?
Its protein production is “failed”.

Which protein production does the source give for “QRLSNSIINSLASGEGVVEALRTMKNDGVISGMFKLEQGKFNRSIENLVRTEYSHFAVEGVRKSLKDIGVKQTQSWSAEDERVCSICGGRHGKEIKDDWHPPYHGRCRCTEI” here?
The protein production was “failed”.

For “MTPSAITLCFLIFAILMFALEKLPLAVTAMIVTVGLAVTGVLPAKEAFLGFVDTNVILFVAMFVIGGALFETGMANKIGGVVSRFAKSERQLMVVLMLITGLMSGILSNTGTSAILIPVILGIAMKSDFARSRLLMPMAFASTLGGNLSLIGSPNNLVVQGVLSQTGLKFGFFEYAKIGLPLLIVGILYFVFIGYRFLPQTLNTHVKKQDYHAFHHHHNIIPKWKQWLSLCVLIATLFAMVFEEVIGIKLYISACIGALILVIMRVITEKQAYQAIDSQVVFLFAGTLALADALKRTGAGADIAHSILSLLGDHPSTTALLLTILLLSCLLTNFMSNTATAALLAPIGLSIANSLNADPRAVLMAVVIGSSCAFATPIATPANTMILSVGQYKFTDYTKAGIPLIIISVLLSMLLLPIFFPLFL”, which protein production is on record?
The protein production was “failed”.
